Data on three substances can be found in patent EP1137792B9.

Holding throughout (test): cell-based or functional assay
The target in test [1] is murine Intercellular adhesion molecule-1 (ICAM-1; CD54) (murine) (UniProt P13597).
For test [2], the target named is murine LFA-3 (murine CD48) (murine) (UniProt P18181).
For test [3], the target named is murine B7-1 (CD80) (murine) (UniProt Q00609).
Chain of UniProt Q00609 (Q00609 38-306): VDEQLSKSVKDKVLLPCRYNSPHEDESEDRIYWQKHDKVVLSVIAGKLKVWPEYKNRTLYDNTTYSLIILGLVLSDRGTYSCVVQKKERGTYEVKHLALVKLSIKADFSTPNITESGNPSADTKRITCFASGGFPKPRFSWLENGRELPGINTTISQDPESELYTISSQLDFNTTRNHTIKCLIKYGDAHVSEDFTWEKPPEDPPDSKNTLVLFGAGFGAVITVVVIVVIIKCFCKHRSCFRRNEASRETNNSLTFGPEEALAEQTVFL

Chain of UniProt P18181 (P18181 23-217): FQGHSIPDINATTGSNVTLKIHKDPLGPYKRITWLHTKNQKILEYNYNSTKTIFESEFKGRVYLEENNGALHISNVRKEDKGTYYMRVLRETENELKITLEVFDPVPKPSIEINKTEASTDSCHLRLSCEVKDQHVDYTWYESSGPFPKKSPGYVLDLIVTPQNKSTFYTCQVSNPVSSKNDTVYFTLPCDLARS
Chain of UniProt P13597 (P13597 28-537): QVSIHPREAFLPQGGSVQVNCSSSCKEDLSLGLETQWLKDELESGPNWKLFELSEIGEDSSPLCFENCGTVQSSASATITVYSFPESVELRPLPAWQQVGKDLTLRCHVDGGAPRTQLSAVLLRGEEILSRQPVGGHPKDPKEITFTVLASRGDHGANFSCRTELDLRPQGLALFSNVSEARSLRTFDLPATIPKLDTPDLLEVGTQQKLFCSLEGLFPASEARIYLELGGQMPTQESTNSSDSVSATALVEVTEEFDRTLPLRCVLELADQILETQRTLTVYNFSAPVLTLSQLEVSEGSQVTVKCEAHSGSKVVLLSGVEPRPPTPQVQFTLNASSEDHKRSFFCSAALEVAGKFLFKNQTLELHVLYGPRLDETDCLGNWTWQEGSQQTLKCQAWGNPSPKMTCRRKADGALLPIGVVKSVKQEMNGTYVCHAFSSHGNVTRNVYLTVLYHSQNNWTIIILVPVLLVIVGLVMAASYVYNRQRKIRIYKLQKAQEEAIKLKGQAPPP

“Hamster anti-murine CD54 (ICAM-1; clone 3E2) (antibody)”: the reduction of the increased T-cell proliferation supported by MC38/ICAM-1 stimulator cells with Con A in test [1] is 88%.
“Hamster anti-murine CD48 (BCM-1; clone HM48-1) (antibody)” yielded a reduction of the increased T-cell proliferation supported by MC38/LFA-3 stimulator cells with Con A in test [2] of 98%.
In the case of “Hamster anti-murine CD80 (B7-1; clone 16-10A1) (antibody)”, in test [3], the inhibition of the increased T-cell proliferation supported by MC38/B7-1 stimulator cells with Con A came to 83%.
